Results: PMC8119676, “Human ribonuclease 1 serves as a secretory ligand of ephrin A4 receptor and induces breast tumor initiation” (Nature Communications, 2021)
Blank lines part the entries; values can stand above or below the molecule they belong to.

Tests used:
[1] = target: EphA4 (Homo sapiens) (UniProt P54764); details: cited from earlier work
[2] = target: T1, endogenous EphA4 (human (endogenous in MCF7, BT-549, KPL4), UniProt P54764-1 20-986); test: ELISA; saturation binding; EphA4 captured from BT-549 RIPA lysates on plates coated with EphA4 antibody; dilution series of recombinant hRNase 1 or ephrin-A5 in RIPA buffer overnight at 4 °C; biotin-conjugated detection antibodies; Kd estimated, Scatchard plot; details: one partner purified
T1 construct: EphA4 receptor tyrosine kinase, endogenous in human breast cancer cell lines; On cells in the co-IP (ligand added to cells, DSP fixed) and in the PLA; also called ephrin A4 receptor
T1 sequence (P54764 20-986): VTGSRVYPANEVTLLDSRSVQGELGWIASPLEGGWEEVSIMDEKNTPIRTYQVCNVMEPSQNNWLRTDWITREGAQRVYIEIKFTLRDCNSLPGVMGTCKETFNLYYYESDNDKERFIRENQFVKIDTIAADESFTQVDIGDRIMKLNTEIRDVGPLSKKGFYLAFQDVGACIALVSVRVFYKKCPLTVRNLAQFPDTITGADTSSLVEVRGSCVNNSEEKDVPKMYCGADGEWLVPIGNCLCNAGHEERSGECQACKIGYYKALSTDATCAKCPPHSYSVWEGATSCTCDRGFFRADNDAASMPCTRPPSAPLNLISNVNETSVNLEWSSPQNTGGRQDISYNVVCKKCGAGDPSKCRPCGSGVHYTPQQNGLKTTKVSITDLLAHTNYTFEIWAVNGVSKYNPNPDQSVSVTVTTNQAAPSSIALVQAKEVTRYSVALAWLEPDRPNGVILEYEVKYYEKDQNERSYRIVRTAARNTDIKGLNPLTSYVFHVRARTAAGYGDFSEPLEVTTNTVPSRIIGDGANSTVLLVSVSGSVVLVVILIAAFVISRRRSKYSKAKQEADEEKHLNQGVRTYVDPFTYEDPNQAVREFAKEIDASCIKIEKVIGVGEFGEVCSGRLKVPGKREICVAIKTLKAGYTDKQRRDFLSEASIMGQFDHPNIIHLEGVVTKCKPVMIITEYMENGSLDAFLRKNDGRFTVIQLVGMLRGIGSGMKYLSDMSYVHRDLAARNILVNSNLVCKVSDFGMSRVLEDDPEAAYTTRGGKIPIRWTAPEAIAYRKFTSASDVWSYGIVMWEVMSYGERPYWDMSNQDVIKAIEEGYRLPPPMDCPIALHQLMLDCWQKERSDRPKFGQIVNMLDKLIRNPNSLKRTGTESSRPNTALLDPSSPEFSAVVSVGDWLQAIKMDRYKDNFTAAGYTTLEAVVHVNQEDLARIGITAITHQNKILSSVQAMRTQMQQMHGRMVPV

[3] = target: T1, endogenous EphA4; test: cell-based or functional assay

Sequence of EphA4 (Homo sapiens) (P54764 20-547): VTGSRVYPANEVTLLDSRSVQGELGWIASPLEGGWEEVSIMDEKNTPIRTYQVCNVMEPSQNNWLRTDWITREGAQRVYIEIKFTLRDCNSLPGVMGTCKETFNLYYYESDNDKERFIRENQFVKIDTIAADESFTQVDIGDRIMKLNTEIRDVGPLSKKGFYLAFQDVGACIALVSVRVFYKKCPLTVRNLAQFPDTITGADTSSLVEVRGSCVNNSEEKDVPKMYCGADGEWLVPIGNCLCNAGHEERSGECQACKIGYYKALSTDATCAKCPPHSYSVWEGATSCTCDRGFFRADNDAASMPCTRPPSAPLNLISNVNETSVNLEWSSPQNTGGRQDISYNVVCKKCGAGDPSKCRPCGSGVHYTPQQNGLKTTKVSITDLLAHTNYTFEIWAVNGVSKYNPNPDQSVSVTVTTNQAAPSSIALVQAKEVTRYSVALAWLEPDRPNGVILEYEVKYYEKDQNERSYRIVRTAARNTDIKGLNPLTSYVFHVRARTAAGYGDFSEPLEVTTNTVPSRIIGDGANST

Molecule: Ephrin-A5 (from UniProt P52803)
Kd [1]: < 10 nM

Kd [2]: 5.6 nM
B1: recombinant ephrin-A5 (ligand, UniProt P52803 21-203, looked up)
chain: QDPGSKAVADRYAVYWNSSNPRFQRGDYHIDVCINDYLDVFCPHYEDSVPEDKTERYVLYMVNFDGYSACDHTSKGFKRWECNRPHSPNGPLKFSEKFQLFTPFSLGFEFRPGREYFYISSAIPDNGRRSCLKLKVFVRPTNSCMKTIGVHDRVFDVNDKVENSLEPADDTVHESAEPSRGEN
notes: ephrin-A5, recombinant; 5.6 nM is printed as equivalent to 0.15 μg/ml, which implies about 27 kDa

EC50 of EphA4 phosphorylation (pY779-EphA4, WB) in BT-549 cells treated with hRNase 1 at various concentrations for 30 min [3]: 9.85 nM
Kd [2]: 92.4 nM
B2: recombinant hRNase 1 protein purified from HEK293 cells (enzyme, human, UniProt P07998 29-156, looked up)
chain: KESRAKKFQRQHMDSDSSPSSSSTYCNQMMRRRNMTQGRCKPVNTFVHEPLVDVQNVCFQEKVTCKNGQGNCYKSNSSMHITDCRLTNGSRYPNCAYRTSPKERHIIVACEGSPYVPVHFDASVEDST
modifications: N-linked glycosylation, heterogeneous (glycosylated and non-glycosylated bands; sites reported at Asn-34, Asn-76, Asn-88)
notes: human ribonuclease 1 (hRNase 1), bought recombinant protein; The ELISA methods say only 'recombinant hRNase 1'; also called human ribonuclease 1; source: bought: Sino Biological Inc. #13468-H08H, purified from HEK293 cells
